Target: endogenous SHP-1 (UniProt P29351)
Test: GST pull-down of endogenous macrophage SHP-1
Settings: reference: wild type

EHEC (EDL933) Tir (from UniProt Q7DB77) Y490F
binding against the reference (sites Y490): weaker

EHEC (EDL933) Tir (from UniProt Q7DB77) Y519F
binding against the reference (sites Y519): weaker

Reference: PMC6542180
